In US20220340642A1 (Kyowa Kirin, published 2022):
Numbering of substitutions follows the chain as printed. Names and notes keep the numbering of the source.

T1: soluble recombinant of human TL1A (His6, GS linker, Leu72-Leu251) (human, UniProt O95150 72-251)
T1 construct: also called His6-TL1A; hTL1A
T1 sequence: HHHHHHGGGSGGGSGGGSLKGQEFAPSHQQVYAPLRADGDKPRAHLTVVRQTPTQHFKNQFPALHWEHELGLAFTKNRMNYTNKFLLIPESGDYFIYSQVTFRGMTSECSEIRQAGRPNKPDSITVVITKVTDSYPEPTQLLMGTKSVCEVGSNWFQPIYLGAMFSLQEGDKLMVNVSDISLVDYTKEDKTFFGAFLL

T2: soluble recombinant of cynomolgus monkey TL1A (His6, GS linker, Leu72-Leu251) (cynomolgus monkey)
T2 construct: also called His6-cynoTL1A
T2 chain: T1 sequence with F57L, I96V

T3: soluble recombinant of cynomolgus monkey FasL (His6, Pro133-Leu280) (cynomolgus monkey, UniProt P63308 133-280)
T3 construct: also called His6-cynoFasL
T3 sequence: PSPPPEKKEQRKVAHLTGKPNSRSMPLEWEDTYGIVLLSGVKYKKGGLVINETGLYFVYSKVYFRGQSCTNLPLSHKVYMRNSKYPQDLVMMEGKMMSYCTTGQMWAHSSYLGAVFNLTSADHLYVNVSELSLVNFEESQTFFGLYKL

T4: Human His6 Fas Ligand/TNFSF6 (Cell Signaling Technology, Inc.) (human, UniProt P48023 133-281)
T4 construct: Bought; confirmed as a trimer by SEC-MALS; also called recombinant human His6 Fas Ligand; soluble human FasL trimer
T4 sequence: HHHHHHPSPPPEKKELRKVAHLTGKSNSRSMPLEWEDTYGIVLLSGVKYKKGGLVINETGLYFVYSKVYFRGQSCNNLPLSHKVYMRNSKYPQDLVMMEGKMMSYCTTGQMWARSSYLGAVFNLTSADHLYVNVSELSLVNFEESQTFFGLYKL

T5: FLAG-cynoLIGHT (FLAG tag, cynomolgus monkey LIGHT Asp74-Val240) (cynomolgus monkey)
T5 construct: SEC trimer fraction; also called soluble cynomolgus monkey LIGHT trimer
T5 chain: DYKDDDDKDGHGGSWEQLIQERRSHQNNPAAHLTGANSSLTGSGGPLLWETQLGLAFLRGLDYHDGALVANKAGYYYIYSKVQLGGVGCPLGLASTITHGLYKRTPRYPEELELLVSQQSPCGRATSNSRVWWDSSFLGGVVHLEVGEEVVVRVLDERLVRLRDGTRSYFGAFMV

T6: soluble recombinant of human TL1A (His6, GS linker, Leu72-Leu251) (UniProt O95150 72-251)
T6 chain: T1 sequence

T7: soluble recombinant of human LIGHT (His10, GS linker, Asp74-Val240)
T7 chain: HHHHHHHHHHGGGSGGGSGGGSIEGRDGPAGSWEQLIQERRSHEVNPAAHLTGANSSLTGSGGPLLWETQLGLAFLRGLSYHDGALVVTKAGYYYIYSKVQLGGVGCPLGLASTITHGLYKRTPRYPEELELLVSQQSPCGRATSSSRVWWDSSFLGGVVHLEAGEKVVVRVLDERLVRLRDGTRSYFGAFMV

T8: soluble recombinant of human FasL (His6, Pro134-Leu281) (UniProt P48023 134-281)
T8 chain: T3 sequence with Q10L, P20S, T70N, H108R

B1: chimera A-E57K_R58D-Fc (Eg1S LALAGANA) (Fc fusion)
chain: ETFPPKYLHYDEETSHQLLCDKCPPGTYLKQHCTAKWKTVCAPCPPRHYTQFWNYLKDCRYCNVLCGEREEEARACHATHNRACRCRTGFFAHAGFCLEHASCPPGAGVIAPGTPSQNTQCQPCPDGFFSNETSSKAPCRKHTNCSVFGLLLTQKGNATHDNICSGNSESTQKEPKSSDKTHTCPPCPAPEAAGAPSVFLFPPKPKDTLMISRTPEVTCVVVDVSHEDPEVKFNWYVDGVEVHNAKTKPREEQYNSTYRVVSVLTVLHQDWLNGKEYKCKVSNKALPAPIEKTISKAKGQPREPQVYTLPPSRDELTKNQVSLTCLVKGFYPSDIAVEWESNGQPENNYKTTPPVLDSDGSFFLYSKLTVDKSRWQQGNVFSCSVMHEALHAHYTQKSLSLSPGK
B2: chimera A-E57V-Fc (Eg1S LALAGANA) (Fc fusion)
chain: B1 chain with K57V, D58R
B3: chimera A-Fc (Eg1S YTE) (Fc fusion)
chain: B1 chain with K57E, D58R, A192L, A193L, A195G, M210Y, S212T, T214E, A392N
B4: chimera A-E57R-Fc (Eg1S LALAGANA) (Fc fusion)
chain: B1 chain with K57R, D58R
B5: chimera A-E57V-Fc (Eg1S YTE) (Fc fusion)
chain: B1 chain with K57V, D58R, A192L, A193L, A195G, M210Y, S212T, T214E, A392N
B6: chimera A-Fc (Eg1S LALAGANA) (Fc fusion)
chain: B1 chain with K57E, D58R
B7: chimera A-E57R-Fc (Eg1S YTE) (Fc fusion)
chain: B1 chain with K57R, D58R, A192L, A193L, A195G, M210Y, S212T, T214E, A392N
B8: chimera A-E57K-Fc (Eg1S YTE) (Fc fusion)
chain: B1 chain with D58R, A192L, A193L, A195G, M210Y, S212T, T214E, A392N
B9: chimera A-E57K_R58E-Fc (Eg1S LALAGANA) (Fc fusion)
chain: B1 chain with D58E
B10: chimera A-E57K-Fc (Eg1S LALAGANA) (Fc fusion)
chain: B1 chain with D58R
B11: chimera A-E57K_R58D-Fc (Eg1S YTE) (Fc fusion)
chain: B1 chain with A192L, A193L, A195G, M210Y, S212T, T214E, A392N
notes: also called 45-10-Fc (Eg1S YTE)
B12: chimera A-E57K_R58E-Fc (Eg1S YTE) (Fc fusion)
chain: B1 chain with D58E, A192L, A193L, A195G, M210Y, S212T, T214E, A392N
notes: also called 45-18-Fc (Eg1S YTE)

Molecular target: T1, soluble recombinant of human TL1A …
Experiment: SPR, binder captured on Protein A chip
Protocol: (§1) The binding activity to human and cynomolgus monkey DcR3 ligand trimers were analyzed by the SPR method. BIAcore T-100 (GE Healthcare) was used for measurement of the binding activities to human LIGHT, cynomolgus monkey LIGHT, human TL1A and cynomolgus monkey TL1A, and BIAcore T-200 (GE Healthcare) was used for measurement of the binding activities to human FasL and cynomolgus monkey FasL. As the buffer, HBS-EP+Buffer was used.
(§2) Various DcR3 variants were injected into Series S Sensor Chip Protein A (GE Healthcare) at 10 μL/min for 30 seconds and captured. Meanwhile, the buffer containing no protein was injected into a reference flow cell. Thereafter, as an analyte, each human DcR3 ligand trimer or each cynomolgus monkey DcR3 ligand trimer diluted to 0.08 to 20 nmol/L was injected. A human LIGHT trimer, a human TL1A trimer or each cynomolgus monkey DcR3 ligand trimer was injected at the flow rate of 30 μL/min for 2 minutes to monitor the binding, and subsequently the buffer was injected for 5 minutes to monitor dissociation. A human FasL trimer was injected at 30 μL/min for 1 minute to monitor the binding, and subsequently the buffer was injected for 3 minutes to monitor dissociation. Then, 3 mol/L magnesium chloride was injected at 30 μL/min for 1 minute to perform a regeneration reaction.

Binder	binding result
B1	binds
B2	binds
B3	binds
B4	binds
B5	binds
B6	binds
B7	binds
B8	binds
B9	binds
B10	binds
B11	binds
B12	binds

Molecular target: T2, soluble recombinant of cynomolgus …
Experiment: SPR, binder captured on Protein A chip
Protocol: as §1, §2

Binder	binding result
B1	binds
B2	binds
B3	binds
B4	binds
B5	binds
B6	binds
B7	binds
B8	binds
B9	binds
B10	binds
B11	binds
B12	binds

Molecular target: T3, soluble recombinant of cynomolgus …
Experiment: SPR, binder captured on Protein A chip
Protocol: as §1, §2

Binder	binding result
B1	binds
B2	binds
B3	binds
B4	binds
B5	binds
B6	binds
B7	binds
B8	binds
B9	binds
B10	binds
B11	binds
B12	binds

Molecular target: T9, FLAG-LIGHT (FLAG tag, human LIGHT Asp74-Val240) (human, UniProt O43557 74-240)
T9 construct: SEC trimer fraction; also called soluble recombinant FLAG-LIGHT trimer; soluble human LIGHT trimer
Experiment: SPR, binder captured on Protein A chip
Protocol: as §1, §2

Binder	binding result
B1	binds
B2	binds
B3	binds
B4	binds
B5	binds
B6	binds
B7	binds
B8	binds
B9	binds
B10	binds
B11	binds
B12	binds

Molecular target: T4, Human His6 Fas Ligand/TNFSF6 (Cell …)
Experiment: SPR, binder captured on Protein A chip
Protocol: as §1, §2

Binder	binding result
B1	binds
B2	binds
B3	binds
B4	binds
B5	binds
B6	binds
B7	binds
B8	binds
B9	binds
B10	binds
B11	binds
B12	binds

Molecular target: T5, FLAG-cynoLIGHT (FLAG tag, cynomolgus …)
Experiment: SPR, binder captured on Protein A chip
Protocol: as §1, §2

Binder	binding result
B1	binds
B2	binds
B3	binds
B4	binds
B5	binds
B6	binds
B7	binds
B8	binds
B9	binds
B10	binds
B11	binds
B12	binds

Molecular target: T6, soluble recombinant of human TL1A …
Experiment: BIAcore SPR
Procedure, shortened: (§3)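 Dissociation constants (Kd, nM) come from surface plasmon resonance measurements on a BIAcore T-100 or T-200 instrument (GE Healthcare) in HBS-EP+ Buffer. Each test molecule was analysed for binding to soluble recombinant His-tagged human or cynomolgus monkey LIGHT, TL1A or FasL.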

Binder	Kd [nM]
B1	0.2
B2	0.23
B3	0.16
B4	0.31
B5	0.24
B6	0.12
B7	0.33
B8	0.28
B9	0.16
B10	0.24
B11	0.25
B12	0.2

Molecular target: T7, soluble recombinant of human LIGHT …
Experiment: BIAcore SPR
Procedure, shortened: as §3

Binder	Kd [nM]
B1	0.3
B2	0.33
B3	0.27
B4	0.38
B5	0.35
B6	0.2
B7	0.39
B8	0.38
B9	0.29
B10	0.34
B11	0.4
B12	0.33

Molecular target: T8, soluble recombinant of human FasL …
Experiment: BIAcore SPR
Procedure, shortened: as §3

Binder	Kd [nM]
B1	4.6
B2	5.2
B3	1.2
B4	4.6
B5	5.3
B6	0.75
B7	5.1
B8	4.3
B9	4.6
B10	3.3
B11	5.7
B12	5.6
